Results reported in PMC11238991.

Columns and labels:
[1] = biological target: cleaved-αA (human αA-crystallin made as his-SUMO fusion, tag removed by ulp-1) (human) (UniProt P02489); test: SEC; analytical; 2.0 mg/mL of each variant on Superose 6 Increase in 20 mM Tris-HCl pH 7.8, 150 mM NaCl, 0.25 mL/min; molar mass from protein standards, number of subunits predicted from it; three experiments
[2] = biological target: recombinant human αA-crystallin (αA) (human) (UniProt P02489); test: as above

cleaved-αA (human αA-crystallin made as his-SUMO fusion, tag removed by ulp-1), sequence (P02489 whole entry, the tested form may be a part): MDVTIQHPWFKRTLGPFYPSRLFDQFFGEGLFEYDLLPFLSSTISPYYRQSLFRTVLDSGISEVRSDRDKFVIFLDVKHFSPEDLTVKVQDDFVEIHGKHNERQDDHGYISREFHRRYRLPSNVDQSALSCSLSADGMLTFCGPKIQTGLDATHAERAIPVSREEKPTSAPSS
recombinant human αA-crystallin (αA), sequence (P02489 whole entry): as the sequence (P02489 whole entry, the tested form may be a part) above

Substance | stoichiometry N [1] [subunits] | stoichiometry N [2] [subunits]
cleaved-αA (human αA-crystallin made as his-SUMO fusion, tag removed by ulp-1) (from UniProt P02489 1-173) (natural protein) | 13 to 22 | –
recombinant human αA-crystallin (αA) (from UniProt P02489 1-173) (natural protein) | – | 27 to 32
